Data published in patent publication US6800467B1, “Polypeptides having aminopeptidase activity and nucleic acids encoding same” (Novozymes Biotech, Inc., priority 1997, dated 2004).

Key:
Format in all cases: biochemical
[1] = Kinetic parameters (Lineweaver-Burke plot) at pH 7.5; conditions: for kcat: average molecular weight of 97 kDa used
Method: The kinetic parameters for various aminopeptidase II substrates was determined using the following protocol. Purified aminopeptidase II with an A280 of 0.581 was used. Each substrate was dissolved in DMSO to a concentration of 100 mg/ml and then diluted 50 fold in 50 mM sodium phosphate pH7.5 buffer to 2 mg/ml. The substrates included Leu-pNA, Glu-pNA (Bachem, Torrance, Calif.), and Ala-pNA. In a 96 well microtiter plate, 10 μl of purified aminopeptidase II was incubated with each substrate as follows except 50 µl of purified aminopeptidase II was incubated with Glu-pNA, and the absorbance at 405 nm was measured for 4 minutes:
1. 200 μl of 2 mg/ml substrate+0 μl of 50 mM sodium phosphate buffer pH 7.5
2. 100 μl of 2 mg/ml substrate+100 μl of 50 mM sodium phosphate buffer pH 7.5
3. 50 μl of 2 mg/ml substrate+150 μl of 50 mM sodium phosphate buffer pH 7.5
4. 25 μl of 2 mg/ml substrate+175 μl of 50 mM sodium phosphate buffer pH 7.5

sodium-caseinate = assay: Degree of hydrolysis (DH) assay, casein; conditions: vs 3 LAPUs FLAVOURZYME alone
Method: (§1) The purified aminopeptidase II described in Example 11 was tested in degree of hydrolysis assays using soy, wheat gluten, and casein as substrates according to the following procedure.
(§2) The degree of hydrolysis (DH) assays were performed at 50° C. for 18 hours as a mini-hydrolysis on a 10 ml scale using soy bean meal tablets, wheat gluten meal tablets, and sodium-caseinate at a 2% concentration adjusted to pH 7, if necessary, with no pH adjustment during hydrolysis. The hydrolysates were inactivated at 85° C. for 3 minutes in a waterbath. The enzymes used were FLAVOURZYME™ and aminopeptidase II. The enzymes were dosed as follows. […] Upon hydrolysis, p-nitroanilide is liberated turning the solution yellow which is monitored 405 nm.
(§3) The degree of hydrolysis (DH), as defined as described by Adler-Nissen (1986, Enzymic Hydrolysis of Food Proteins, Elsevier Applied Science Publishers), was determined by reaction of the supernatant with OPA (ortho-phtaldialdehyde, Sigma Chemical Co., St. Louis, Mo.) according to the following procedure The hydrolysate was diluted 100-fold into distilled water. […] The solution was then shaken well and after 2 minutes exactly, the absorbance at 340 nm was measured and compared to the absorbance of a 0.95 mM L-serine (distilled water) solution after subtraction of the blank value (water reacted with OPA reagent). […]

[2] = pH optimum using Ala-pNA as substrate in universal buffer
Method: The purified aninopeptidase II described in Example 15 was used in the following characterizations.
The Ala-pNA substrate was prepared by dissolving 100 mg of Ala-pNA in 1 ml of DMSO and adding 20 μl of the Ala-pNA/DMSO solution to 980 μl of the universal buffer at the various pH values. The assay was initiated by adding a 15 μl aliquot of the aminopeptidase II in 50 mM sodium phosphate pH 7.5 buffer to 200 μl of 2 mg/ml Ala-pNA at the various pH values at ambient temperature. The change in absorbance at 405 nm was monitored for 5 minutes. Autohydrolysis of the substrate as a control was determined by adding 15 μl of 50 mM sodium phosphate pH 7.5 buffer to 200 μl of 2 mg/ml Ala-pNA at the various pH values.

soy bean meal tablets = assay: Degree of hydrolysis (DH) assay, soy; conditions: vs 3 LAPUs FLAVOURZYME alone, 50° C., 18 hours
Method: as §1, §2, §3

[3] = 2 LAPUs aminopeptidase II added to 3 LAPUs FLAVOURZYME

B1: aminopeptidase II: Recombinant Aspergillus oryzae 1568 (ATCC 20386) aminopeptidase II, 496 amino acids (SEQ ID NO:2), produced in Aspergillus oryzae or Fusarium (protein)
chain: MRSLLWASLLSGVLAGRALVSPDEFPEDIQLEDLLEGSQQLEDFAYAYPERNRVFGGKAHDDTVNYLYEELKKTGYYDVYKQPQVHLWSNADQTLKVGDEEIEAKTMTYSPSVEVTADVAVVKNLGCSEADYPSDVEGKVALIKRGECPFGDKSVLAAKAKAAASIVYNNVAGSMAGTLGAAQSDKGPYSAIVGISLEDGQKLIKLAEAGSVSVDLWVDSKQENRTTYNVVAQTKGGDPNNVVALGGHTDSVEAGPGINDDGSGIISNLVIAKALTQYSVKNAVRFLFWTAEEFGLLGSNYYVSHLNATELNKIRLYLNFDMIASPNYALMIYDGDGSAFNQSGPAGSAQIEKLFEDYYDSIDLPHIPTQFDGRSDYEAFILNGIPSGGLFTGAEGIMSEENASRWGGQAGVAYDANYHAAGDNMTNLNHEAFLINSKATAFAVATYANDLSSIPKRNTTSSLHRRARTMRPFGKRAPKTHAHVSGSGCWHSQVEA
- Km ([1]; substrate Ala-pNA, enzyme of Example 15): 1490 µM
- kcat ([1]; substrate Glu-pNA): 0.137 s⁻¹
- Km ([1]; substrate Glu-pNA, enzyme of Example 15): 1170 µM
- kcat ([1]; substrate Leu-pNA): 3.848 s⁻¹
- Km ([1]; substrate Leu-pNA, enzyme of Example 15 (produced by Fusarium)): 5780 µM
- increase of absolute DH (sodium-caseinate; 1 LAPU aminopeptidase II added to 3 LAPUs FLAVOURZYME): 7%
- increase of absolute DH (sodium-caseinate; [3]): 9%
- pH of optimal activity ([2]; Ala-pNA as substrate, ambient temperature, enzyme of Example 15 (produced by Fusarium)): 9.5-10
- Avg. Activity ([2]; pH 4.42, Ala-pNA, ambient temperature): 0 mOD/min
- Relative Activity ([2]; pH 4.42, Ala-pNA, relative to pH 9.68): 0
- Avg. Activity ([2]; pH 4.91, Ala-pNA, ambient temperature): 2 mOD/min
- Relative Activity ([2]; pH 4.91, Ala-pNA, relative to pH 9.68): 0.006
- Avg. Activity ([2]; pH 5.41, Ala-pNA, ambient temperature): 7.8 mOD/min
- Relative Activity ([2]; pH 5.41, Ala-pNA, relative to pH 9.68): 0.024
- Avg. Activity ([2]; pH 5.89, Ala-pNA, ambient temperature): 13.9 mOD/min
- Relative Activity ([2]; pH 5.89, Ala-pNA, relative to pH 9.68): 0.043
- Avg. Activity ([2]; pH 6.40, Ala-pNA, ambient temperature): 16.37 mOD/min
- Relative Activity ([2]; pH 6.40, Ala-pNA, relative to pH 9.68): 0.051
- Avg. Activity ([2]; pH 6.90, Ala-pNA, ambient temperature): 23.48 mOD/min
- Relative Activity ([2]; pH 6.90, Ala-pNA, relative to pH 9.68): 0.0727
- Avg. Activity ([2]; pH 7.27, Ala-pNA, ambient temperature): 41.24 mOD/min
- Relative Activity ([2]; pH 7.27, Ala-pNA, relative to pH 9.68): 0.128
- Avg. Activity ([2]; pH 7.59, Ala-pNA, ambient temperature): 69.15 mOD/min
- Relative Activity ([2]; pH 7.59, Ala-pNA, relative to pH 9.68): 0.214
- Avg. Activity ([2]; pH 8.03, Ala-pNA, ambient temperature): 145.6 mOD/min
- Relative Activity ([2]; pH 8.03, Ala-pNA, relative to pH 9.68): 0.45
- Avg. Activity ([2]; pH 8.62, Ala-pNA, ambient temperature): 245.99 mOD/min
- Relative Activity ([2]; pH 8.62, Ala-pNA, relative to pH 9.68): 0.761
- Avg. Activity ([2]; pH 9.25, Ala-pNA, ambient temperature): 306.97 mOD/min
- Relative Activity ([2]; pH 9.25, Ala-pNA, relative to pH 9.68): 0.95
- Relative Activity ([2]; pH 9.68, Ala-pNA (reference)): 1.0
- Avg. Activity ([2]; pH 9.68, Ala-pNA, ambient temperature): 323.15 mOD/min
- Avg. Activity ([2]; pH 10.51, Ala-pNA, ambient temperature): 270.8 mOD/min
- Relative Activity ([2]; pH 10.51, Ala-pNA, relative to pH 9.68): 0.838
- Avg. Activity ([2]; pH 10.95, Ala-pNA, ambient temperature): 197.86 mOD/min
- Relative Activity ([2]; pH 10.95, Ala-pNA, relative to pH 9.68): 0.612
- increase of absolute DH (soy bean meal tablets; [3]): at least 8%
- increase of absolute DH (soy bean meal tablets; 5 LAPUs aminopeptidase II added to 3 LAPUs FLAVOURZYME): ≥ 10%
